US20210063414A1, “METHODS FOR PREVENTING AND/OR TREATING BONE LOSS CONDITIONS BY MODULATING IRISIN” (Dana-Farber Cancer Institute, Inc., priority 2018, published 2021)

Target: T1, MLO-Y4 cell surface proteins (Mus musculus, UniProt E9PW83)
T1 construct: endogenous in cells; host or cells: MLO-Y4
T1 sequence (E9PW83 1-1143): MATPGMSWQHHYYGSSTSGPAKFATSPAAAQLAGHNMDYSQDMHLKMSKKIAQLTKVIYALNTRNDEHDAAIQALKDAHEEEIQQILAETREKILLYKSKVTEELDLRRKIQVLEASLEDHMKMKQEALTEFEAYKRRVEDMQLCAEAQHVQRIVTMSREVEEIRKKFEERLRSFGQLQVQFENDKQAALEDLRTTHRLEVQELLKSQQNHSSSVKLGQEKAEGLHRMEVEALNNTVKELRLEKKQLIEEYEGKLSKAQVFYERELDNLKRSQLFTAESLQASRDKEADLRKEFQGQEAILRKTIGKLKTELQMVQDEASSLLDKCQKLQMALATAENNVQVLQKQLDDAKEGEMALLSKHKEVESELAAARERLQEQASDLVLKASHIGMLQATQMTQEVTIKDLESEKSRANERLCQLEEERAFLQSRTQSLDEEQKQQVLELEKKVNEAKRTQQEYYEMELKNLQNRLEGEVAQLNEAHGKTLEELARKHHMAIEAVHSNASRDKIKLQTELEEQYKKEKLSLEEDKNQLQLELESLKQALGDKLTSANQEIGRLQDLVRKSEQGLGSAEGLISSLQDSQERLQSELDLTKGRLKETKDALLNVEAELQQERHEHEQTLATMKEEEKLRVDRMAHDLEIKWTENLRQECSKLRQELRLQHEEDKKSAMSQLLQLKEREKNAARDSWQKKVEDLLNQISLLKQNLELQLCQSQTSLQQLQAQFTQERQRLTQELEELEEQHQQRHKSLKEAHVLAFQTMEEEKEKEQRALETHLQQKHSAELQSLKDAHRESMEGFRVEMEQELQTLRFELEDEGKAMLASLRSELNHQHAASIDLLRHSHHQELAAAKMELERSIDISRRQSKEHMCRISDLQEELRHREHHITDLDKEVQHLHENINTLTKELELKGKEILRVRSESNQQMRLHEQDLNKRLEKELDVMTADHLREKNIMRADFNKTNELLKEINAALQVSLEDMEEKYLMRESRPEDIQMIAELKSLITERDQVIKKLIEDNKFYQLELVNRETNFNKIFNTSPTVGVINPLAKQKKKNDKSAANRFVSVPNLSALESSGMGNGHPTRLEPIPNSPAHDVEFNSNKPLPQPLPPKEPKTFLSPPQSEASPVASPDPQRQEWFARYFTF
Assay: Crosslinking/co-immunoprecipitation/mass spectrometry (TMT quantitative proteomics) to identify irisin receptors
Format: binding
Conditions: co-precipitated protein Fam184a (E9PW83_MOUSE)
Method in brief: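 Relative protein abundance came from 6-plex TMT MS3 quantitation on an Orbitrap Fusion Lumos, after in-gel trypsin digestion of Coomassie-stained SDS-PAGE lanes. Input was a Ni-NTA pulldown (250 mM imidazole elution) of lysates from murine MLO-Y4 cells. These cells were treated on ice with His-tagged irisin or adipsin (10 nM, 20 min) in serum-free medium, then crosslinked with 1.5 mM DTSSP for 30 min.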

B1: irisin: secreted cleaved form of FNDC5; recombinant human/mouse irisin with C-terminal his tag produced in HEK293 cells (protein)
chain: DSPSAPVNVTVRHLKANSAVVSWDVLEDEVVIGFAISQQKKDVRMLRFIQEVNTTTRSCALWDLEEDTEYIVHVQAISIQGQSPASEPVLFKTPREAEKMASKNKDEVTMKE
modifications: left off: small tags and cut ends
notes: secreted cleaved form of FNDC5; recombinant human/mouse irisin with C-terminal his tag produced in HEK293 cells
In the case of B1, the TMT signal-to-noise ratio is reported as 8.102 and the “irisin/adipsin TMT signal-to-noise ratio” value is reported as 0.009.
